Laboratory results as given in patent US7972772B2, “KIF11 and method for diagnosing non-small cell lung cancer” (Oncotherapy Science, Inc., priority 2004, dated 2011).

T1: endogenous KIF11 (Homo sapiens, UniProt P52732)
T1 construct: endogenous in cells
T1 sequence (P52732 1-1056): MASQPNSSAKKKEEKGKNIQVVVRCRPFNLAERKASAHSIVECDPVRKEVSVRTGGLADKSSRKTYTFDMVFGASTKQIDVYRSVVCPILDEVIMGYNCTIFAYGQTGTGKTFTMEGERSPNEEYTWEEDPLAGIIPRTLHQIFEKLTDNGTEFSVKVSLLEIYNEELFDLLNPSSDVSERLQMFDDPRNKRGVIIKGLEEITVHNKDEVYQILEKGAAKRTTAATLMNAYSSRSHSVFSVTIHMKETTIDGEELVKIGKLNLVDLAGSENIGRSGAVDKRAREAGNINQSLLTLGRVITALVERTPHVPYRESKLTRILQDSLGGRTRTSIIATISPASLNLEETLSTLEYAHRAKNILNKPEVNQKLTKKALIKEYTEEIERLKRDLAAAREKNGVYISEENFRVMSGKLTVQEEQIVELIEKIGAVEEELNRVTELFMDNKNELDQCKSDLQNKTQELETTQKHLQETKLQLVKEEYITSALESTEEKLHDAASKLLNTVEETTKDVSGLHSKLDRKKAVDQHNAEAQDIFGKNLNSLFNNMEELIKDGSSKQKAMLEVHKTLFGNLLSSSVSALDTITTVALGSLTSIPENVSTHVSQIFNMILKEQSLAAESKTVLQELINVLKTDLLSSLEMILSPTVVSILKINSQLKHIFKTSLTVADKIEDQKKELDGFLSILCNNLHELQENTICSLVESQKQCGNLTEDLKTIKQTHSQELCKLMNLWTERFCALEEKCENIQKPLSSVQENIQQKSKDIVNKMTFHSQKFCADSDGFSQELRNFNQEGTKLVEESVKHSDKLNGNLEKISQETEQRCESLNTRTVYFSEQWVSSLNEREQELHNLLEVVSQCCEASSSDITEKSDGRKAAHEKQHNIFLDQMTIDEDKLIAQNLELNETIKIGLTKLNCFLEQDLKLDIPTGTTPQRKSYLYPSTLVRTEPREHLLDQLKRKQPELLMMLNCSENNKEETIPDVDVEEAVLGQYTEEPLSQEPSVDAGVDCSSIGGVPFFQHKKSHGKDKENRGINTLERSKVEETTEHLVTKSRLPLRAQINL

T2: KOC1-KIF11 complex (Homo sapiens, UniProt P52732)
T2 construct: endogenous in cells; host or cells: LC319 (KOC1DEL3) and A549 (KOC1DEL2)
T2 sequence (P52732 1-1056): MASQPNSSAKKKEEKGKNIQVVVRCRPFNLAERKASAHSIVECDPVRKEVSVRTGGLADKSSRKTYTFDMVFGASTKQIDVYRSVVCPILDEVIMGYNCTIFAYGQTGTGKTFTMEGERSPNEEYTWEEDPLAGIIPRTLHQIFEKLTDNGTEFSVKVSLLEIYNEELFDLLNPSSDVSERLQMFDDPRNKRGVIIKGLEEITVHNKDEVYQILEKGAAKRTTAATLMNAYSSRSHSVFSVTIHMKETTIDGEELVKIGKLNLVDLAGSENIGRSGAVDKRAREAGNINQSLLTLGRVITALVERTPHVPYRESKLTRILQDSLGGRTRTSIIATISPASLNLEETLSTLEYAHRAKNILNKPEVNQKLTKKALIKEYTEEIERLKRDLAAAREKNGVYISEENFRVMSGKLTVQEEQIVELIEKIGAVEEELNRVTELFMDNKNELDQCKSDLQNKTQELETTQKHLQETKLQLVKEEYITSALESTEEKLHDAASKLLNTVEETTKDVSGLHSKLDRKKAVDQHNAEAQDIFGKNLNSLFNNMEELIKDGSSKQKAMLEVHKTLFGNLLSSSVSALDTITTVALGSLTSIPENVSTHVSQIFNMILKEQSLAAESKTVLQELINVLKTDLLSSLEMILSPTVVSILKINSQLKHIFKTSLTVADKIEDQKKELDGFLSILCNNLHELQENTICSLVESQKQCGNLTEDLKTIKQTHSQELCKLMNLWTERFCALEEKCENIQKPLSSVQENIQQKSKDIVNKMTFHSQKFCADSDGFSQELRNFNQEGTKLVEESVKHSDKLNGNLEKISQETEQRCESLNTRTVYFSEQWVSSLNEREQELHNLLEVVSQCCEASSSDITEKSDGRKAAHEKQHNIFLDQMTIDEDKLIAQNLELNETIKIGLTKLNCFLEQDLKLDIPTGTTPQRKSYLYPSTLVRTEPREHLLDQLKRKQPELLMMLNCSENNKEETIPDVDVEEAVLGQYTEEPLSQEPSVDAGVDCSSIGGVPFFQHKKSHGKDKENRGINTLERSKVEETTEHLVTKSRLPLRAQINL


Experiments:
RAB35 mRNA = assay: Northwestern blot analysis with DIG-labeled RAB35 mRNA; format: binding; details: deletion mutants expressed in A549 cells, compared to full-length KOC1
Procedure: Immunoprecipitated extracts from cells transfected with the KOC1 deletion mutants (μM) were boiled in 2×SDS-sample buffer, electrophoresed through 10-20% gradient polyacrylamide gels (BIO-RAD) and transferred to a polyvinylidene difluoride membrane (Hybond-P). The membrane was then blocked for 1 hour at room temperature in blocking buffer (10 mM Tris-HCl (pH 7.8), 150 mM NaCl, 1 mg/ml yeast tRNA), and washed twice with 50 ml of 10 mM Tris-HCl (pH 7.8) for 5 min and incubated with DIG-labeled RNA probe in 5 ml of NWB buffer (10 mM Tris-HCl (pH 7.8), 1 mM EDTA, 50 mM NaCl, 0.02% Ficoll, 0.02% polyvinyl pyrrolidone, 0.02% BSA) for 2 hours at room temperature. The membrane was washed four times with NWB buffer and the RNA probe bound to the proteins was then detected using DIG nucleic acid detection kit (Roche) according to the supplier's protocol.
To determine the region of KOC1 that is required for binding to KOC1-associated mRNAs, we performed northwestern blot analysis using immunoprecipitated recombinant proteins of KOC1 deletion-mutants expressed in A549 cells (FIG. 4a) and DIG-labeled RAB35 mRNA, which is one of the KOC1 associated mRNAs.

LC319 cells = assay: Triplicate MTT assay of cell viability, LC319; format: cell-based, human; details: LC319, plasmid 2.5-10 μg vs mock, 7 days with G418; P<0.001 KOC1DEL3 vs mock
Procedure: Using 30 μl of Lipofectamine 2000 (Invitrogen), 10 μg of siRNA-expression vector were transfected into NSCLC cell lines, A549 and LC319, both endogenously over-expressing KOC1, KIF11, NMU, GHSR1b, NTSR1, RAB35, and FOXM1. […] The transfected cells were cultured for five days in the presence of appropriate concentrations of geneticin (G418), and then, cell numbers and viability were measured by Giemsa staining and triplicate MTT assays. The target sequences of the synthetic oligonucleotides for RNAi were as follows: control 1 (EGFP: enhanced green fluorescent protein (EGFP) gene, a mutant of Aequorea victoria EGFP), 5′-[…]-3′ (SEQ.ID.NO.29); control 2 (Luciferase: Photinus pyralis luciferase gene), 5′-[…]-3′ (SEQ.ID.NO.30); control 3 (Scramble: chloroplast Euglena gracilis gene coding for 5S and 16S rRNAs), 5′-[…]-3′ (SEQ. ID. NO.31);
We performed dominant-negative assays using the KOC1 deletion mutants to investigate the functional role of the KOC1-KIF11 complex in growth or survival of lung-cancer cells. […] The transfected cells were cultured for 7 days in the presence of G418 and their viability was measured by triplicate MTT assays.

endogenous KIF11 = target: T1, endogenous KIF11; assay: Immunoprecipitation of KOC1 deletion mutants with endogenous KIF11; format: binding
KOC1-KIF11 complex = target: T2, KOC1-KIF11 complex; assay: Immunoprecipitation of endogenous KOC1-KIF11 complex after dominant-negative transfection; format: cell-based
Procedure: We performed dominant-negative assays using the KOC1 deletion mutants to investigate the functional role of the KOC1-KIF11 complex in growth or survival of lung-cancer cells. The KOC1DEL3 and KOC1DEL2 construct (FIG. 3a; 10 μg), mock plasmid (10 μg), or plasmid mixtures of both constructs in the final dose of 10-μg DNA (KOC1DEL3 or KOC1DEL2 vs mock (μg), 7.5:2.5; 5:5; or 2.5:7.5, individually) were transfected into LC319 cells. The transfected cells were cultured for 7 days in the presence of G418 and their viability was measured by triplicate MTT assays.
To investigate the functional significance of KOC1-KIF11 interaction for growth or survival of lung-cancer cells, a deletion fragment of KOC1 containing the two RRMs, which was able to interact with KIF11 (KOC1DEL3; FIG. 3a, b) was examined for a dominant-negative function of suppressing direct interaction between endogenous KOC1 and KIF11. […] We also confirmed that transfection of construct containing only KH-domains control have no effect on proliferation. […]

A549 cells = assay: Triplicate MTT assay of cell viability, A549; format: cell-based, human; details: A549, plasmid dose-dependent vs mock; P=0.0006 KOC1DEL2 vs mock

| interaction with endogenous KIF11 (immunoprecipitation) (endogenous KIF11; LC319 cells) | complex formation between endogenous KOC1 and KIF11 (KOC1-KIF11 complex; LC319 cells over-expressing the RRM domains) | interaction with endogenous KIF11 (immunoprecipitation) (endogenous KIF11; A549 cells) | complex formation between endogenous KOC1 and KIF11 (KOC1-KIF11 complex; A549 cells over-expressing KOC1DEL2) | Molecule | binding to RAB35 mRNA (northwestern blot) (RAB35 mRNA) | cell viability (MTT), dominant-negative assay (LC319 cells) | cell viability (MTT), dominant-negative assay (A549 cells) |
| --- | --- | --- | --- | --- | --- | --- | --- |
| detected interaction | reduce complex formation | – | – | KOC1DEL3: KOC1 deletion mutant 2×RRM without KH, positions 1-197 of SEQ ID NO:105 (protein, listed as Homo sapiens) MNKLYIGNLSENAAPSDLESIFKDAKIPVSGPFLVKTGYAFVDCPDESWALKAIEALSGKIELHGKPIEVEHSVPKRQRIRKLQIRNIPPHLQWEVLDSLLVQYGVVESCEQVNTDSETAVVNVTYSSKDQARQALDKLNGFQLENFTLKVAYIPDEMAAQQNPLQQPRGRRGLGQRGSSRQGSPGSVSKQKPCDLP | did not bind | significant dose-dependent decreases | – |
| – | – | detected interaction | reduced complex formation | KOC1DEL2: KOC1 deletion mutant 2×RRM+2×KH, positions 1 to 406 of SEQ ID NO:105 (protein, listed as Homo sapiens) MNKLYIGNLSENAAPSDLESIFKDAKIPVSGPFLVKTGYAFVDCPDESWALKAIEALSGKIELHGKPIEVEHSVPKRQRIRKLQIRNIPPHLQWEVLDSLLVQYGVVESCEQVNTDSETAVVNVTYSSKDQARQALDKLNGFQLENFTLKVAYIPDEMAAQQNPLQQPRGRRGLGQRGSSRQGSPGSVSKQKPCDLPLRLLVPTQFVGAIIGKEGATIRNITKQTQSKIDVHRKENAGAAEKSITILSTPEGTSAACKSILEIMHKEAQDIKFTEEIPLKILAHNNFVGRLIGKEGRNLKKIEQDTDTKITISPLQELTLYNPERTITVKGNVETCAKAEEEIMKKIRESYENDIASMNLQAHLIPGLNLNALGLFPPTSGMPPPTSGPPSAMTPPYPQFEQSETE | very weak binding affinities | – | significant dose-dependent decreases |
